The target of the assay is β-gal 4-domain fragment 1-725 (E. coli). Description: negative-stain EM.

As for “β-gal 4-domain fragment 1-725 (domain or fragment)”, the stoichiometry N worked out at 4.

By stoichiometry N is commonly meant a count of units in the complex or per binding partner.

(Values after paper doi:10.1101/2025.05.27.656346.)
